The source of these data is article doi:10.1101/2024.05.08.593097.

Data set [1] concerns the target R358E/K361E-CCaCalpL (Candidatus Cloacimonas acidaminovorans strain Evry).
For data set [2], the target named is T1, CalpL (CCaCalpL, SAVED-Lon protease) (Candidatus Cloacimonas acidaminovorans, UniProt B0VHB4 1-506).
T1 sequence: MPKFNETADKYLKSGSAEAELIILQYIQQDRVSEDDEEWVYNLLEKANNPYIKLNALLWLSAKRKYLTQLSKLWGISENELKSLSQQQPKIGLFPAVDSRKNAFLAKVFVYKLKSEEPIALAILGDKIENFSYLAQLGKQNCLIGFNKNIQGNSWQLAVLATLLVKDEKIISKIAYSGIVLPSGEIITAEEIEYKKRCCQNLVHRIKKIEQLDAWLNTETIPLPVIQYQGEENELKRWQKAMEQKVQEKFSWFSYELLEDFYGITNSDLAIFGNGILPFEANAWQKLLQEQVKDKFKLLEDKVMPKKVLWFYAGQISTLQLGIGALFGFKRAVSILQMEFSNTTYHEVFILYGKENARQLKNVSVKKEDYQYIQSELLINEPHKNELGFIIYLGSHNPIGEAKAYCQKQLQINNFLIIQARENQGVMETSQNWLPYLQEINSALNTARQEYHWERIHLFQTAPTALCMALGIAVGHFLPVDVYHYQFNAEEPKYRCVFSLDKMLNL
The data set can be described thus: cryo-EM structure.

In data set [3] the target is T1, CalpL (CCaCalpL, SAVED-Lon protease). The experiment in a line: cryo-EM structure. This is another data set of the same source.
For data set [4] the target is unchanged. The data set can be described thus: cryo-EM structure. This is another data set of the same source.

Like-named read-outs stand apart in the source and are kept apart here.

On to R358E/K361E-CCaCalpL (enzyme), for which the ring nuclease activity (cA4 cleavage), reduction against wt-CCaCalpL in data set [1] was over 100 fold.
Turning to AAAA (ssRNA, 2',3'-cyclic phosphate at 3' end) [A4>p], the binding result in data set [2] is on record as “binds”.
AAAA (ssRNA, 3'-phosphate) [A4p]: in data set [3], the binding result is “binds”.
On to AAAA (structured_RNA, cyclic tetra-adenylate, 3'-5' linked ring closed by phosphodiester) [cA4], for which the binding result in data set [4] is on record as “binds”.
